T1: PIN2/TERF1-interacting telomerase inhibitor 1 (PinX1), purified wild type (UniProt Q96BK5 1-328)
T1 construct: PinX1, wild type, cloned into pGEX-6p-2; GST removed by PreScission protease; PinX1-C ends at aa328; also called purified PinX1; source: E. coli BL21(DE3)-pLysS, purified (Glutathione Sepharose, gel filtration)
T1 sequence (looked up): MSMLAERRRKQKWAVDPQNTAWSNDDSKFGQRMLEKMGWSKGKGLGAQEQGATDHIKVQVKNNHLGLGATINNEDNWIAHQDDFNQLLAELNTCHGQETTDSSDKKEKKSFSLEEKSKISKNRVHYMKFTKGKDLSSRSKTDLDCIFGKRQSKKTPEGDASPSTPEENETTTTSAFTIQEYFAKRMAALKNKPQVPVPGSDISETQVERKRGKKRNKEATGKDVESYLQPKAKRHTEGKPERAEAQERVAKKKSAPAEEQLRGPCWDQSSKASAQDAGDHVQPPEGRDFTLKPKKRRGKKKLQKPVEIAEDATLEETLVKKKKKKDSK

B1: NPM 1–123 (domain or fragment, UniProt P06748 1-123, looked up)
chain: MEDSMDMDMSPLRPQNYLFGCELKADKDYHFKVDNDENEHQLSLRTVSLGAGAKDELHIVEAEAMNYEGSPIKVTLATLKMSVQPTVSLGGFEITPPVVLRLKCGSGPVHISGQHLVAVEEDA
notes: source: E. coli BL21(DE3)-pLysS, purified (HisTrap HP, gel filtration)
B2: PinX1-C (aa254–328), purified (domain or fragment, UniProt Q96BK5 254-328, looked up)
chain: SAPAEEQLRGPCWDQSSKASAQDAGDHVQPPEGRDFTLKPKKRRGKKKLQKPVEIAEDATLEETLVKKKKKKDSK
notes: PinX1 residues 254-328; source: E. coli BL21(DE3)-pLysS, purified (Glutathione Sepharose, gel filtration)

Legend:
[1] = biological target: T1, PIN2/TERF1-interacting telomerase …; test: pull-down; purified PinX1 (3 mg) immobilised on a 1 ml HiTrap NHS-activated column; 1 mg NPM or NPM variant in PBS, 30 min at room temperature; washed with PBS, eluted with PBS with 1.5 M NaCl; SDS-PAGE; conditions: both partners purified
[2] = biological target: T2, nucleophosmin (NPM), purified wild type (UniProt P06748 1-294); test: pull-down; purified NPM (2 mg) immobilised on a 1 ml HiTrap NHS-activated column; 1 mg PinX1 truncation in PBS, 30 min at room temperature; washed with PBS, eluted with PBS with 1.5 M NaCl; SDS-PAGE; conditions: both partners purified
T2 construct: nucleophosmin, wild type, cloned into pRSETA-HisSumo; HisSumo tag removed by Sumo protease; Truncations end at aa294; also called wild-type NPM; purified NPM; source: E. coli BL21(DE3)-pLysS, purified (HisTrap HP, gel filtration)

Binder	binding result [1]	binding result [2]
B1	binds	–
B2	–	binds

Reference: paper PMC5334639, “Nucleophosmin Interacts with PIN2/TERF1-interacting Telomerase Inhibitor 1 (PinX1) and Attenuates the PinX1 Inhibition on Telomerase Activity” (Scientific Reports, 2017)
